For experiment [1], the target named is SWAP-70-like adaptor of T cells (SLAT), endogenous mouse protein (mouse) (UniProt Q8C2K1). Kind of experiment: cell-based or functional assay.
For experiment [2] the target is unchanged. Kind of experiment: co-IP of SLAT and IP3R1 from CD4+ T cells pre-incubated with TAT protein, densitometry against control TAT-HA.
Experiment [3] concerns the target T1, Flag-tagged IP3R1-f2.1 (residues 346-490) (Homo sapiens (Human), UniProt Q14643 346-490).
T1 construct: not shown: Flag tag
The experiment is described as follows: co-IP from Jurkat-TAg cells cotransfected with Flag-IP3R1-f2.1.

With “TAT-HA-2.1 Δ18 fusion protein (TAT-HA fused to IP3R1 residues 346-490 deleted of residues 400-417) (from UniProt Q14643 346-490)”, the anti-CD3/CD28-stimulated IFNγ production by CD4+ T cells (ELISA), reduction in experiment [1] fell in the range of 15 to 20%. In experiment [2], this molecule showed a percent reduction of the SLAT-IP3R1 interaction of 20%.

B1: Myc-tagged SLAT putative EF-hand domain (other)
chain: MALRKELLKSIWYAFTALDVEKSGKVSKSQLKVLSHNLYTVLHIPHDPVALEEHFRDDDDGPVSSQGYMPYL
notes: not shown: Myc tag downstream of the insert (pEF-Myc-His A/C vector)
On to B1, for which the binding result in experiment [3] is recorded as “binds”.

Values taken from patent US10774143 (LA JOLLA INSTITUTE FOR ALLERGY AND IMMUNOLOGY, dated 2020).
